Assay results taken from patent US6043211A, “Method for inhibiting the activity of a platelet-derived growth factor receptor binding protein” (The Regents of the University of California, priority 1995, dated 2000).
Entries after “also recorded” stand apart in the source; their conditions may differ. Square brackets hold non-standard residues; d marks the D form. Ends that are not written are not given here. Peptide text beside a SMILES is read from it. pY = N[C@@H](Cc1ccc(OP(=O)(O)O)cc1)C(=O)O

What was measured:
[1] = molecular target: T1, 85 kD protein association with type B PDGF receptor (Mus musculus, UniProt P26450); assay: In vitro association of 85 kD phosphoprotein with immobilized baculovirus-expressed PDGF receptor (in vitro kinase assay); type: binding; details: peptides (50 μM) preincubated with unstimulated 3T3 lysate, FIG. 4a
T1 construct: Cytoplasmic cell lysates from density-arrested BALB/c 3T3 cells were mixed with the immobilized receptor; endogenous in cells; host or cells: BALB/c 3T3 cell lysate (85 kD protein); receptor made in Sf9 insect cells with recombinant baculovirus
T1 sequence (P26450 whole entry): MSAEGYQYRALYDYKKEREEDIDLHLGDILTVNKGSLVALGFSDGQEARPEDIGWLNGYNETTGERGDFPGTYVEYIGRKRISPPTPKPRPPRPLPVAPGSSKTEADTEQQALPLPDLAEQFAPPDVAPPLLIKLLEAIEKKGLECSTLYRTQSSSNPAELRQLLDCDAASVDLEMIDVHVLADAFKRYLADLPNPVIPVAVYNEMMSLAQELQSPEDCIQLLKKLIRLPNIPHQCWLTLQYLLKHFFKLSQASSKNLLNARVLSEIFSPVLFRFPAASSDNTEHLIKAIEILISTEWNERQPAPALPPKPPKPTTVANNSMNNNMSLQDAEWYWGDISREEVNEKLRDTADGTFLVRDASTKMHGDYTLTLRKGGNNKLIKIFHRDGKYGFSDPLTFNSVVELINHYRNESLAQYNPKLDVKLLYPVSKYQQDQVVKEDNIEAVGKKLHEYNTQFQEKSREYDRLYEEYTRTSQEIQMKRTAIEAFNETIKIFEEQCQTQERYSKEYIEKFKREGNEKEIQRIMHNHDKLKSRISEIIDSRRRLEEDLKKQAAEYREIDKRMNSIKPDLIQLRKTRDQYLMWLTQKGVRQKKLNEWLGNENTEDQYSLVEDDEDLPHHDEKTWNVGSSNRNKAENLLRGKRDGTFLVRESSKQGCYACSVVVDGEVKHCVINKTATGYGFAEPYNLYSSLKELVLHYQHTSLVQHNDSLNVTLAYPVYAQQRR
T1 sequence (P42337 whole entry partner): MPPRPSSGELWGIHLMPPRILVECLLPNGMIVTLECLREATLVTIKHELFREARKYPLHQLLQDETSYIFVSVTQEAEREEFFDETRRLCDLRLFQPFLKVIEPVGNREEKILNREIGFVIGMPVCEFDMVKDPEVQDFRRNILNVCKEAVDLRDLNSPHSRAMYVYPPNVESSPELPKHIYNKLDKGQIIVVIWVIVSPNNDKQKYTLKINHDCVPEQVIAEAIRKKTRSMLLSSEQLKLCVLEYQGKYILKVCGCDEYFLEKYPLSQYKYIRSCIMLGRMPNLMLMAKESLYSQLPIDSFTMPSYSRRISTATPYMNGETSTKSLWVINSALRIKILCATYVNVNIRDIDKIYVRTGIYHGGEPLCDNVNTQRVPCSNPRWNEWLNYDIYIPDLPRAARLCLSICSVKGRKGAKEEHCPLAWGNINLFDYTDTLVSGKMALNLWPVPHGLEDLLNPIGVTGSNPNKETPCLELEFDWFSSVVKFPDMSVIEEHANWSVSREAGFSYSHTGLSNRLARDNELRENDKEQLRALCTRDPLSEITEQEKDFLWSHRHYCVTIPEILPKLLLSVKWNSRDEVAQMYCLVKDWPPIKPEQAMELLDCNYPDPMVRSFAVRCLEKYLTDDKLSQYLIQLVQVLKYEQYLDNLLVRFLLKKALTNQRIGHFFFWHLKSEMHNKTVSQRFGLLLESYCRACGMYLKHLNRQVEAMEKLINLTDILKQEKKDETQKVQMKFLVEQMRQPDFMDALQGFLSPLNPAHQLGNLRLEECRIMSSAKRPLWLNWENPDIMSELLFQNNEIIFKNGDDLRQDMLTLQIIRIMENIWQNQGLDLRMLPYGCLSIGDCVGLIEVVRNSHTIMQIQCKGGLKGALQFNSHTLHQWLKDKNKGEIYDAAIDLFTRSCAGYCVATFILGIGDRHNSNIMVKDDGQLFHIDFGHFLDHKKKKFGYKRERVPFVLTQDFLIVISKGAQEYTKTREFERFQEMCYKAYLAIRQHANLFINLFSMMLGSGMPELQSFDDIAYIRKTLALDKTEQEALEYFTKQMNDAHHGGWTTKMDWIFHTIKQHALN
Excerpt: In in vitro experiments, the type B PDGF receptor was expressed in an insect cell expression system, partially purified, and immobilized using anti-receptor antibodies and protein A Sepharose. The receptor was allowed to autophosphorylate in vitro, so that it would be in a conformation that mimicked the ligand-activated state of the receptor. Cytoplasmic cell lysates from density-arrested BALB/c 3T3 cells were mixed with the immobilized receptor and the complexes were washed extensively. […] The receptor-associated phosphoproteins were detected by an in vitro kinase assay using ^32 P-ATP.
To determine the ability of a series of synthetic peptides derived from this sequence to block the interaction between the receptor and the 85 kD/PI3 kinase activity, 3T3 lysates were incubated with the different peptides prior to mixing with immobilized receptor. […] The other lanes show the proteins that associated with the receptor in the presence of derivatives of the Y719 peptide.
Infected cells were washed twice with cold PBS and lysed in 1 ml of lysis buffer (1% NP-40, 20 mM Tris (pH 8.0), 173 mM NaCl, 10% glycerol, 2 mM EDTA, 1 mM phenylmethylsulfonylfluoride (PMSF), aprotinin (0.15 U/ml), 20 μM leupeptin, 1 mM sodium orthovanadate) at 4° C. for 20 min with rocking. In most experiments (except where indicated in the legend of FIG. 3) the immunoprecipitated receptor was autophosphorylated in vitro by incubating the immune complexes in a buffer containing 20 mM Tris (pH 7.5), 20 mM MnCl, 100 μM ATP for 15 min at 25° C. Lysates were cleared of insoluble material by centrifugation at 13,000× g for 10 min. Lysates were incubated with receptor antibodies (1:500 dilution) for 4 h at 4° C. Receptor-antibody complexes were precipitated using Protein-A sepharose (Sigma) and washed consecutively with RIPA buffer (lysis buffer with 0.1% SDS), wash buffer 1 [0.5% NP-40, 0.5 M LiCl, 50 mM Tris (pH 7.4)] and with 10 mM Tris (pH 7.4). The PI3 kinase association assay was performed by incubating the immobilized receptor with BALB c/3T3 cell lysates for 3 hours at 4° C. The immune complexes were consecutively washed with cold PBS; 0.5% NP-40, 0.5 M LiCl and 51 50 mM Tris (pH 7.4).

85 kD protein = molecular target: T2, 85 kD protein (Mus musculus, UniProt P26450); assay: Receptor blot: 32P-labeled PDGF receptor probe binding to immobilized 85 kD protein; details: 2.5 μM peptide, FIG. 7
T2 construct: Cytoplasmic cell lysates from density-arrested BALB/c 3T3 cells were mixed with the immobilized receptor; endogenous in cells; host or cells: BALB/c 3T3 cell lysate (85 kD protein); receptor made in Sf9 insect cells with recombinant baculovirus
T2 sequence (P26450 whole entry): as the sequence (P26450 whole entry) above
T2 sequence (P42337 whole entry partner): as the sequence (P42337 whole entry partner) above
Excerpt: FIG. 7 illustrates the association of soluble radiolabeled receptor with immobilized 85 kD protein ("receptor blot"). Baculovirus-expressed PDGF receptors were immunoprecipitated using receptor antibodies and the receptor was ^32 P-labeled in vitro by autophosphorylation. The solubilized radiolabeled receptor was used to probe nitrocellulose filters containing SDS-polyacrylamide gel-fractionated lysates from control (lanes 1, 3, 4 and 5) or PDGF stimulated (lane 2) cells. In the peptide competition experiments (lane 3, 4, and 5) the peptides were added to the nitrocellulose paper along with the radiolabeled receptor probe. The arrow indicates the position of the 85 kD protein.
To determine the nature of the interaction of the receptor with the 85 kD protein, a modification of Western blotting methodology was used. PDGF receptor from Sf9 cells infected with PDGF receptor baculovirus was immuno precipitated with receptor antibodies, labeled with ^32 P in vitro, and used as a probe to bind proteins from 3T3 cell lysates that had been separated electrophoretically and transferred to nitrocellulose. The radiolabeled PDGF receptor bound directly to an 85 kDa protein in unstimulated 3T3 cell lysate (FIG. 7, lane 1). […] The direct binding interaction appears to involve the 20 amino acid segment in the kinase insert region containing tyrosine 719, and tyrosine phosphorylation of this segment appears to be necessary for the interaction.
Cell lysate proteins transferred to nitrocellulose membranes were analyzed for their ability to bind directly to the PDGF receptor by probing the nitrocellulose membrane with ^32 P-labeled PDGF receptor. To prepare the radiolabeled receptor probe, baculovirus-expressed receptor was immunoprecipitated from 10^6 Sf9 cells. The immune complexes were washed and labeled by autophosphorylation as described above. Labeled receptor was solubilized from the immunoprecipitates by repeated incubation of the immunoprecipitate in solubilization buffer (0.4% SDS, 100 mM NaCl, 2 mM EDTA, 2 mM β-mercaptoethanol, and 50 mM triethanolamine, pH 7.4) at 100° C. for 2 min. […]

[2] = molecular target: T3, PI3 kinase association with type B PDGF receptor (Mus musculus, UniProt P26450); assay: In vitro association of PI3 kinase activity with immobilized baculovirus-expressed PDGF receptor; type: binding; details: for Blocking of association of PI3 kinase activity with the receptor: peptides (50 μM) preincubated with unstimulated 3T3 lysate, FIG. 4b
T3 construct: Cytoplasmic cell lysates from density-arrested BALB/c 3T3 cells were mixed with the immobilized receptor; endogenous in cells; host or cells: BALB/c 3T3 cell lysate (85 kD protein); receptor made in Sf9 insect cells with recombinant baculovirus
T3 sequence (P26450 whole entry): as the sequence (P26450 whole entry) above
T3 sequence (P42337 whole entry partner): as the sequence (P42337 whole entry partner) above
Excerpt: An in vitro system was used to study the interaction of PDGF receptors and PI3 kinase. […] These phosphoproteins include the 85 kDa protein and a 110 kDa protein that have recently been correlated with PI3 kinase activity. In in vitro experiments, the type B PDGF receptor was expressed in an insect cell expression system, partially purified, and immobilized using anti-receptor antibodies and protein A Sepharose. The receptor was allowed to autophosphorylate in vitro, so that it would be in a conformation that mimicked the ligand-activated state of the receptor. Cytoplasmic cell lysates from density-arrested BALB/c 3T3 cells were mixed with the immobilized receptor and the complexes were washed extensively. PI3 kinase activity was found in the complex of proteins associated with the receptor (FIG. 1d). The receptor-associated phosphoproteins were detected by an in vitro kinase assay using ^32 P-ATP. At least four receptor-associated proteins with apparent molecular weights of 140 kD, 120/110 kD (sometimes a doublet), 85 kD and 74 kD were radiolabeled (the bands at 160 kD and 150 kD are the baculovirus-expressed receptor and its precursor, respectively). The 140 kD band has been previously identified as […] and the band at 74 kD includes the raf-1 kinase and probably another molecule as well. The 85 kD protein co-migrated with the 85 kD band, previously considered to be PI3 kinase, in anti-phosphotyrosine immunoprecipitates of cell lysates prepared from PDGF-stimulated cells. The association of 85 and 110 kD proteins with the baculovirus-expressed receptor was also observed by silver stain analysis.
To determine the ability of a series of synthetic peptides derived from this sequence to block the interaction between the receptor and the 85 kD/PI3 kinase activity, 3T3 lysates were incubated with the different peptides prior to mixing with immobilized receptor. […] The arrow indicates the position of the 85 kD protein that co-purified with the PI3 kinase activity. […]

[3] = molecular target: T4, transfected type B human receptor (Homo sapiens, UniProt P09619); assay: Competitive binding of PDGF forms against 125I-PDGF on CHO transfectants (CHO-HR5)
T4 construct: expressed in transfected cells; host or cells: CHO (clone CHO-HR5), plasmid pSVRH5
T4 sequence (P09619 33-1106): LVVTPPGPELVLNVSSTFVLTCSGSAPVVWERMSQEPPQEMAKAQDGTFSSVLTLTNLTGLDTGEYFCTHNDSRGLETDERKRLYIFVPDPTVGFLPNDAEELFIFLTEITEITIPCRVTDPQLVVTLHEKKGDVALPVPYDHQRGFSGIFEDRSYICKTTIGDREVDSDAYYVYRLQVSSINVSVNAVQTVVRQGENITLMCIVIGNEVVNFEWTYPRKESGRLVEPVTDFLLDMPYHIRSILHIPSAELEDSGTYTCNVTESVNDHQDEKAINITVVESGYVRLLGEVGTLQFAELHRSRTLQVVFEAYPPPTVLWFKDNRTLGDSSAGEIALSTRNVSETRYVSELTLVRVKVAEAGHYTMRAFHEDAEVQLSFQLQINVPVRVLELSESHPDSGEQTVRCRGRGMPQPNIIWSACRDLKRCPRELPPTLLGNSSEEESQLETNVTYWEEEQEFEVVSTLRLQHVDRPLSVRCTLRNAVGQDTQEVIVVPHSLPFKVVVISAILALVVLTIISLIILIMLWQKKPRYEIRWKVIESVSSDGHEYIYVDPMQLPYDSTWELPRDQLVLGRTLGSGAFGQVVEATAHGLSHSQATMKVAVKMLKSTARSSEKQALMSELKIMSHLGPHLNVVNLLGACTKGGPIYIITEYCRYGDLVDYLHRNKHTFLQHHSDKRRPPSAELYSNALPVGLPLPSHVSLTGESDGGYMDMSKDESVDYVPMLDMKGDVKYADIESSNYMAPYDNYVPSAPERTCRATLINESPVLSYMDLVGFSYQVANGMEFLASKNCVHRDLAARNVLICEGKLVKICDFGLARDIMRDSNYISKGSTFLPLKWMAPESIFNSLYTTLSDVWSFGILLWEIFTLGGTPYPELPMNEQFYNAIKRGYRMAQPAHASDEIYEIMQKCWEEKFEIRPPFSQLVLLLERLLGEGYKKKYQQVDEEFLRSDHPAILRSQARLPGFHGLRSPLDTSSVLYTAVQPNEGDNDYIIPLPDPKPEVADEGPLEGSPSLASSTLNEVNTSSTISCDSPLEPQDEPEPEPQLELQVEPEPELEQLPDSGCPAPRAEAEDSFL
Experimental: Binding was carried out at 37° C. for 45 min in whole cell suspension.

native mouse receptor = assay: Competitive binding of PDGF forms against 125I-PDGF on BALB/c 3T3 cells; details: mouse 3T3 cells, yeast-expressed homodimers
Excerpt: The ability of the human recombinant AA and BB homodimers to compete for the type B receptor sites and displace ^125 I-labeled PDGF (prepared as described below) was studied. Each homodimer was produced selectively by a yeast expression system and was purified from yeast media that is devoid of other mesenchymal cell growth factors, thus avoiding the artifact of contamination by factors that might be present in mammalian expression systems.
BALB/c 3T3 cells and CHO transfectants (CHO-HR5) were incubated with ^125 I-PDGF in the presence of increasing concentrations of AA or BB. Binding was carried out at 37° C. for 45 min in whole cell suspension. Unbound, radiolabeled PDGF was removed by centrifugation on a Ficoll gradient Non-specific binding, determined by incubating CHO cells with ^125 I-PDGF, accounted for 25 percent of the bound radioactivity.

[4] = molecular target: T5, type B receptor tyrosine kinase (Homo sapiens, UniProt P09619); assay: Activation of PDGF receptor tyrosine kinase (autophosphorylation, anti-phosphotyrosine Western blot) in CHO-HR5; type: cell-based; details: transfected human receptor
T5 construct: expressed in transfected cells; host or cells: CHO (clone CHO-HR5), plasmid pSVRH5
T5 sequence (P09619 33-1106): as above
Excerpt: Following polyacrylamide-SDS electrophoresis, the phosphorylated receptor was identified by Western blot using an anti-phosphotyrosine antibody.

Compound: CC[C@H](C)[C@H](NC(=O)[C@H](CO)NC(=O)[C@H](CCC(=O)O)NC(=O)[C@H](CC(=O)O)NC(=O)[C@H](CCCCN)NC(=O)[C@H](CO)NC(=O)[C@H](CCSC)NC(=O)[C@H](CC(=O)O)NC(=O)[C@H](CCSC)NC(=O)[C@H](Cc1ccc(O)cc1)NC(=O)CNC(=O)CN)C(=O)N[C@@H](CC(=O)O)C(=O)N[C@@H](Cc1ccc(O)cc1)C(=O)N[C@H](C(=O)N1CCC[C@H]1C(=O)N[C@@H](CCSC)C(=O)N[C@@H](CC(C)C)C(=O)N[C@@H](CC(=O)O)C(=O)N[C@@H](CCSC)C(=O)O)C(C)C [Y719] (H-GGYMDMSKDESIDYVPMLDM-OH)
- Blocking of binding of the 85 kD phosphoprotein to the receptor [1]: No change in the pattern of receptor-associated protein
- Effect on association of radiolabeled receptor with immobilized 85 kD protein (receptor blot) (85 kD protein): did not interfere with the association of the receptor with the 85 kD protein

Compound: MDMSKDESIDYVPMLDM (MDMSKDESID[pY]VPMLDM) [Y719P short]
- Blocking of binding of the 85 kD phosphoprotein to the receptor [1]: blocked binding of the 85 kD protein; also recorded: had blocking activity
- Blocking of association of PI3 kinase activity with the receptor [2]: inhibited the association of PI3 kinase activity with the receptor

Compound: CC[C@H](C)[C@H](NC(=O)[C@H](CO)NC(=O)[C@H](CCC(=O)O)NC(=O)[C@H](CC(=O)O)NC(=O)[C@H](CCCCN)NC(=O)[C@H](CO)NC(=O)[C@H](CCSC)NC(=O)[C@H](CC(=O)O)NC(=O)[C@H](CCSC)NC(=O)[C@H](Cc1ccc(O)cc1)NC(=O)CNC(=O)CN)C(=O)N[C@@H](CC(=O)O)C(=O)N[C@@H](Cc1ccc(OP(=O)(O)O)cc1)C(=O)N[C@H](C(=O)N1CCC[C@H]1C(=O)N[C@@H](CCSC)C(=O)N[C@@H](CC(C)C)C(=O)N[C@@H](CC(=O)O)C(=O)N[C@@H](CCSC)C(=O)O)C(C)C [Y719P]
- Blocking of binding of the 85 kD phosphoprotein to the receptor [1]: blocked the binding of the 85 kD phosphoprotein
- IC50 [2]: ~5 µM
- Effect on association of radiolabeled receptor with immobilized 85 kD protein (receptor blot) (85 kD protein): failed to associate with the 85 kD protein

Compound: AA: Human recombinant AA homodimer of PDGF produced by a yeast expression system
- Relative affinity for the transfected type B human receptor ([3]; CHO-HR5, yeast-expressed homodimers): lower affinity than the BB form
- Competition for 125I-PDGF labeled sites ([3]; human receptor transfectants, 37° C., 45 min): competed
- Relative affinity for the native mouse receptor (native mouse receptor): lower affinity than the BB form
- Activation of type B receptor tyrosine kinase (autophosphorylation) [4]: stimulated autophosphorylation of the transfected human receptor; also recorded: activates the receptor tyrosine kinase of the type B receptor

Compound: MMDIKVPMDEYMSDYSDLGG (MMDIKVPMDE[pY]MSDYSDLGG; not fully specified; printed as MMDIKVPMDE*YMSDYSDLGG) [Y719P scrambled]
- Blocking of binding of the 85 kD phosphoprotein to the receptor [1]: failed to block binding of the 85 kD protein
- Blocking of association of PI3 kinase activity with the receptor [2]: did not prevent the association of PI3 kinase activity with the receptor
- Effect on association of radiolabeled receptor with immobilized 85 kD protein (receptor blot) (85 kD protein): did not interfere with the association of the receptor with the 85 kD protein

Compound: AB: Human partially purified platelet-derived AB PDGF heterodimer
- Activation of type B receptor tyrosine kinase (autophosphorylation) [4]: stimulated autophosphorylation of the transfected human receptor

Compound: CC[C@H](C)[C@H](NC(=O)[C@H](CO)NC(=O)[C@H](CCC(=O)O)NC(=O)[C@H](CC(=O)O)NC(=O)[C@H](CCCCN)NC(=O)[C@H](CO)NC(=O)[C@H](CCSC)NC(=O)[C@H](CC(=O)O)NC(=O)[C@H](CCSC)NC(=O)[C@H](Cc1ccc(OP(=O)(O)O)cc1)NC(=O)CNC(=O)CN)C(=O)N[C@@H](CC(=O)O)C(=O)O [Y708P short]
- Blocking of binding of the 85 kD phosphoprotein to the receptor [1]: had blocking activity

Compound: CC[C@H](C)[C@H](NC(=O)[C@H](CO)NC(=O)[C@H](CCC(=O)O)NC(=O)[C@H](CC(=O)O)NC(=O)[C@H](CCCCN)NC(=O)[C@H](CO)NC(=O)[C@H](CCSC)NC(=O)[C@H](CC(=O)O)NC(=O)[C@H](CCSC)NC(=O)[C@H](Cc1ccc(OP(=O)(O)O)cc1)NC(=O)CNC(=O)CN)C(=O)N[C@@H](CC(=O)O)C(=O)N[C@@H](Cc1ccc(OP(=O)(O)O)cc1)C(=O)N[C@H](C(=O)N1CCC[C@H]1C(=O)N[C@@H](CCSC)C(=O)N[C@@H](CC(C)C)C(=O)N[C@@H](CC(=O)O)C(=O)N[C@@H](CCSC)C(=O)O)C(C)C [Y708P/Y719P]
- Blocking of binding of the 85 kD phosphoprotein to the receptor [1]: blocked binding of the 85 kD protein
